# Measurements: patent US20220305136A1 (ASCENDIS PHARMA ONCOLOGY DIVISION A S, published 2022)
# T1: human CTLA-4 (AA Ala37-Ser160)-Fc Tag fusion protein (human, UniProt P16410 37-160)
# T1 construct: range 37-160; Bought reagent, coated on ELISA wells as the capture protein; also called AcroBiosystem catalog no; CT4-H5255; not shown: Fc Tag of the bought fusion protein
# T1 sequence (looked up): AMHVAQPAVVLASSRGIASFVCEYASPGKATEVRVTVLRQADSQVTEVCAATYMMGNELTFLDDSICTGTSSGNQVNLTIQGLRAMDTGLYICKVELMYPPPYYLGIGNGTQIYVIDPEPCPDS
# B1: HHC^MET (VHH)
# chain: EVQLVESGGGLVQAGGSLRLSCAASGGTFSFYGMGWFRQAPGKEQEFVADIRTSAGRTYYADSVKGRFTISRDNAKNTVYLQMNSLKPEDTAVYYCAAEMSGISGWDYWGQGTQVTVSSGGGGSGGGSEVQLVESGGGLVQAGGSLRLSCAASGGTFSFYGMGWFRQAPGKEQEFVADIRTSAGRTYYADSVKGRFTISRDNAKNTVYLQMNSLKPEDTAVYYCAAEMSGISGWDYWGQGTQVTVSS
# notes: Custom made, expressed in E. coli; The assay measured free HHC^MET in rat plasma, either spiked in as standard or released from the hydrogel prodrug; also called HHC^MET-NH2
# Molecular target: T1, human CTLA-4 (AA Ala37-Ser160)-Fc Tag …
# Assay: in-house sandwich ELISA; CTLA-4-Fc coated on plate captures HHC^MET from rat plasma; read-out with rabbit anti-camelid VHH antibody-HRP
# Excerpt: These solutions were used for the generation of a calibration curve.
binder,measurement,value
B1,binding result,binds
